Assay results published in publication PMC7263589, “Integration of phage and yeast display platforms: A reliable and cost effective approach for binning of peptides as displayed on-phage” (PLoS ONE, 2020).

Columns and labels:
IL-23 binding to IL-23R = experiment: Competition SPR: IL-23 binding to captured IL-23R-Fc-AVI in the presence of peptide; conditions: concentration tested 0.1 μM; 20 nM IL-23, IL-23R-Fc-AVI on Protein-A, 30 s injection, 1% BSA buffer; n = 1
Method: SPR (Biacore T200, GE Healthcare) was used to determine binding constants of the peptides against IL-23 and their competitiveness to IL-23R. All SPR experiments were performed at 25°C with flow rate of 50 μl/min. Assay buffer used in direct binding experiment was 10 mM HEPES pH 7.5, 150 mM NaCl, 0.005% P20, and 3% DMSO. Assay buffer used in competition experiment was 10 mM HEPES pH 7.5, 150 mM NaCl, 0.005% P20, and 1% BSA. All peptides were reconstituted first in DMSO as 10 mM stocks and then diluted into assay buffer. The proteins used in direct binding and competition SPR are described in S1 Table in S1 File. For direct binding of peptides against IL-23, 2000–9000 RU of IL-23-AVI was captured to streptavidin sensor chips (GE Healthcare, Series S Sensor Chip SA, BR-1005-31). Dilution series with 3-fold increment were prepared for each peptide. Initially, all peptides were tested up to 30 μM. […] IL-23 at 20 nM without peptide, “IL-23 only”, was used as control to quantify IL-23 binding without blockage; while “cold” IL-23R was used as a positive control for blockage.
The design of competition SPR was based on a knockdown assay (Fig 5A). […] Response levels of IL-23 plus peptide were measured post injection (Fig 5B) to avoid possible bulk RI difference between analyte and running buffer. […]

IL-23 = molecular target: T1, IL-23 (Homo sapiens, UniProt P29460+Q9NPF7); experiment: SPR direct binding to captured IL-23-AVI (Biacore T200); conditions: IL-23-AVI captured on streptavidin chip, 25°C, 1:1 binding model, n = 1, 23–447 an estimate
T1 construct: made in house
T1 sequence (Q9NPF7 20-189): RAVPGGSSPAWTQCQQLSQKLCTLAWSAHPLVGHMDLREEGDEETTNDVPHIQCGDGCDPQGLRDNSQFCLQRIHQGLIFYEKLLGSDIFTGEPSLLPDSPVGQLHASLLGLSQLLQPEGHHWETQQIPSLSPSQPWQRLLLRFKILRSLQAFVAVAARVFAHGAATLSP
T1 sequence (P29460 23-328): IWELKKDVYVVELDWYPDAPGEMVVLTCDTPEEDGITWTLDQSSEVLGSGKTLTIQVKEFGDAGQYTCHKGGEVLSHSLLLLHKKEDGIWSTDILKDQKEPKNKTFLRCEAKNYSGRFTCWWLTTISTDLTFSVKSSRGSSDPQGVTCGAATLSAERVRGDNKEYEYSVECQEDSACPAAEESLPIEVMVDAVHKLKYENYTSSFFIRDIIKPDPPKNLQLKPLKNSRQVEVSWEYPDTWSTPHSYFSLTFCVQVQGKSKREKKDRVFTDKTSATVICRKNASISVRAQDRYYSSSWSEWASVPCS
Method: SPR (Biacore T200, GE Healthcare) was used to determine binding constants of the peptides against IL-23 and their competitiveness to IL-23R. All SPR experiments were performed at 25°C with flow rate of 50 μl/min. Assay buffer used in direct binding experiment was 10 mM HEPES pH 7.5, 150 mM NaCl, 0.005% P20, and 3% DMSO. Assay buffer used in competition experiment was 10 mM HEPES pH 7.5, 150 mM NaCl, 0.005% P20, and 1% BSA. All peptides were reconstituted first in DMSO as 10 mM stocks and then diluted into assay buffer. The proteins used in direct binding and competition SPR are described in S1 Table in S1 File. For direct binding of peptides against IL-23, 2000–9000 RU of IL-23-AVI was captured to streptavidin sensor chips (GE Healthcare, Series S Sensor Chip SA, BR-1005-31). Dilution series with 3-fold increment were prepared for each peptide. Initially, all peptides were tested up to 30 μM. Concentration range for some were then lowered accordingly based on affinity or nuisance behavior at high concentrations. SPR “multi-cycle” type was used for peptides 23–644, 23–437, 23–441, 23–446, and 23–447. Each cycle consisted of 30s of analyte injection and then 60s of buffer flow to monitor dissociation. “Single cycle kinetics” (SCK) type was used for 23–652 due to their long dissociation half-lives. Each SCK cycle consisted of five 60s injections of sample in increasing concentration with a final 600s of dissociation. To study IL-23 and IL-23R interaction, 200–1000 RU of IL-23-AVI and IL-23R-Fc-AVI were captured to streptavidin sensor chip. Dilution series with 3-fold increment of IL-23R-FLAG-HIS and IL-23-HIS were run in SCK cycle type as described above except the final dissociation time were 60-300s. Sensorgrams from the entire titration series for each sample were fitted globally to extract binding kinetics and affinity using Biacore T200 Evaluation Software 2.0 (GE Healthcare) according to a 1:1 binding model. To identify IL-23 binders that can block receptor binding, a competition SPR was established. In each SPR cycle, fresh IL-23R was capture (<1000 RU) by injecting 10 μg/ml of IL-23R-Fc-AVI to a Protein-A flow cell at 10 μl/min flow rate for 30s. Analyte consisted of a mixture of 20 nM of IL-23 protein and a single concentration of peptide was then injected for 30s at 50 μl/min to observe IL-23 binding. Finally, the Protein-A surface was regenerated by 10 mM Glycine pH 1.5 for 30s at 30 μl/min. IL-23 at 20 nM without peptide, “IL-23 only”, was used as control to quantify IL-23 binding without blockage; while “cold” IL-23R was used as a positive control for blockage.

Competition SPR %Inhibition (IL-23 binding to IL-23R): 98.0%
kd (IL-23): 0.00151 s⁻¹
ka (IL-23; 50 μl/min, 10 mM HEPES pH 7.5, 150 mM NaCl, 0.005% P20, 3% DMSO, multi-cycle (single cycle kinetics for 23–652 and IL-23R)): 170000 M⁻¹ s⁻¹
B1: IL-23R: IL23R ECD (aa 1-353) with C-terminal Flag and HIS tags produced in HEK293 cells; positive control for blockage (protein)
chain: GITNINCSGHIWVEPATIFKMGMNISIYCQAAIKNCQPRKLHFYKNGIKERFQITRINKTTARLWYKNFLEPHASMYCTAECPKHFQETLICGKDISSGYPPDIPDEVTCVIYEYSGNMTCTWNAGKLTYIDTKYVVHVKSLETEEEQQYLTSSYINISTDSLQGGKKYLVWVQAANALGMEESKQLQIHLDDIVIPSAAVISRAETINATVPKTIIYWDSQTTIEKVSCEMRYKATTNQTWNVKEFDTNFTYVQQSEFYLEPNIKYVFQVRCQETGKRYWQPWSSLFFHKTPETVPQVTSKAFQHDTWNSGLTVASISTGHLTSDNRGDIGLLLGMIVFAVMLSILSLIGIFNRSFRTGIKRRILLLIPKWLYEDIPNMKNSNVVKMLQENSELMNNNSSEQVLYVDPMITEIKEIFIPEHKPTDYKKENTGPLETRDYPQNSLFDNTTVVYIPDLNTGYKPQISNFLPEGSHLSNNNEITSLTLKPPVDSLDSGNNPRLQKHPNFAFSVSSVNSLSNTIFLGELSLILNQGECSSPDIQNSVEEETTMLLENDSPSETIPEQTLLPDEFVSCLGIVNEELPSINTYFPQNILESHFNRISLLEK
modifications: fluorescent label (dye and site not stated)
